{
  "source": "paper PMC11270187",
  "molecular_target": "HLA-DR on BJAB cells (human (endogenous in BJAB))",
  "test": "flow cytometry on cells; full antibody titration of purified IgGs on HLA-DR-expressing BJAB cells, Fc Block, 1 h at 4 °C, detected with AF488 goat anti-human IgG Fcγ; also after storage of the IgGs at -20, 4 or 40 °C for up to 4 weeks",
  "data": [
    {"binder": "humanized 44H10 version 17 IgG (antibody, V domains shown) VH: QVTLKESGPVLVKPTETLTLTCTVSGFSLTSYGVHWIRQPPGKALEWLAVIWAGGSISYSTSLMSRLTISKDTSKSQVVLTMTNMDPVDTATYYCARAYGDYVHYAMDYWGQGTLVTVSS VL: DIQMTQSPSSLSASVGDRVTITCRASQEISGYLTWLQQKPGKAPKLLIYAASTLDSGVPSRFSGSGSGTDFTLTISSLQPEDFATYYCLQYTNYPLTFGQGTKLEIK", "values": [
      {"measurement": "fold difference in EC50 against parental 44H10", "result": "> 50", "unit": "fold"}
    ]}
  ]
}
